Measured values reported in patent US20240000892A1.

Target: IL-2 receptor (CD25, CD122 and CD132) on Kupffer cells of C57BL/6 mice (mouse (C57BL/6)) (UniProt P01590)
Test: cell-based or functional assay

Sequence of UniProt P01590 (P01590 22-268, chain 1 of 3): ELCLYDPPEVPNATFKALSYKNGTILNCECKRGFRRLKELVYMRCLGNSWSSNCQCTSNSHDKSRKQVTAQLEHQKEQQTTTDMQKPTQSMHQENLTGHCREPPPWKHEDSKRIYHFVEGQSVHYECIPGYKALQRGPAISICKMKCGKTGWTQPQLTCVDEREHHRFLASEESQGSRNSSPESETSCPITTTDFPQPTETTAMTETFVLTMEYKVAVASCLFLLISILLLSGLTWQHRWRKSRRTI
Sequence of UniProt P01590 (P16297 27-539, chain 2 of 3, further chain): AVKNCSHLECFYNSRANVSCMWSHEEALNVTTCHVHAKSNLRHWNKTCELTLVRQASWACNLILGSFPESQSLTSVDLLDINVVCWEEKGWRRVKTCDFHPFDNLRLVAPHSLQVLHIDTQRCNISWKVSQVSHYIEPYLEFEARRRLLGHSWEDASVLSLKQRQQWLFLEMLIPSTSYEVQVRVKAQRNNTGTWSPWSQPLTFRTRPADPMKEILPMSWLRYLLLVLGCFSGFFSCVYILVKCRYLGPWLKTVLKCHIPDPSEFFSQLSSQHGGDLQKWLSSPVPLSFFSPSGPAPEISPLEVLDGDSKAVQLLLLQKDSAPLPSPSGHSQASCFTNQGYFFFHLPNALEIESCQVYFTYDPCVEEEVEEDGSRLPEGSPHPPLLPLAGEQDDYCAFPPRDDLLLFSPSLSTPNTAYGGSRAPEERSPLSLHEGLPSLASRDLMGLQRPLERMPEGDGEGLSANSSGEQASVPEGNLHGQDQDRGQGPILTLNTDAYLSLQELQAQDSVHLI
Sequence of UniProt P01590 (P34902 23-369, chain 3 of 3, further chain): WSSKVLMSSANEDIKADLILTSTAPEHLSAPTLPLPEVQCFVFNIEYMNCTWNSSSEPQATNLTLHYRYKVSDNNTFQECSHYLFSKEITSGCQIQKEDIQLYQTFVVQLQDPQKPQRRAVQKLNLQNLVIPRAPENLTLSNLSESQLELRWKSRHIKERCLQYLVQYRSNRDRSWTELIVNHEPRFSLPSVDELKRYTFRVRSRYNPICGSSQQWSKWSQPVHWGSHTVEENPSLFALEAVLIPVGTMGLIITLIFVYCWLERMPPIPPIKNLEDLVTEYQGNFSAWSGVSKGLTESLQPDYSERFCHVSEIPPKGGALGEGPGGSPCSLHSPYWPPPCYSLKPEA

Substance: recombinant IL-2 (402 ML/CF, R&D Systems) (from UniProt P04351 21-169) (ligand)
- IL-2-dependent fold change in STAT5 phosphorylation in KCs, compared with CD4+ FoxP3+ splenic T regulatory cells: 10 fold lower
